In a protein production outcome set (Wang et al. 2014):

Test: label from the status in PepcDB records
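Note: failed if final PepcDB status was selected cloned or expressed and not failed if soluble or beyond.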

| Sequence | protein production |
| --- | --- |
| MSETELRKRQAQFTRELHGDDIGKKTGLSALMSKNNSAQKEAVQKYLRNWDGRTDKDAEERRLEDYNEATHSYYNVVTDFYEYGWGSSFHFSRFYKGESFAASIARHEHYLAYKAGIQRGDLVLDVGCGVGGPAREIARFTGCNVIGLNNNDYQIAKAKYYAKKYNLSDQMDFVKGDFMKMDFEENTFDKVYAIEATCHAPKLEGVYSEIYKVLKPGGTFAVYEWVMTDKYDENNPEHRKIAYEIELGDGIPKMFHVDVARKALKNCGFEVLVSEDLADNDDEIPWYYPLTGEWKYVQNLANLATFFRTSYLGRQFTTAMVTVMEKLGLAPEGSKEVTAALENAAVGLVAGGKSKLFTPMMLFVARKPENAETPSQTSQEATQ | failed |
| MSETLAVVRASRPNFLLLAPLCAGLGLAVAWQQGQAPELLHTFLVFLGAVLAHAAVNLLNEYDDFRSGLDMITERTPFSGGSGALPEVPTAARRVLWAGLGTLAVVVTIGLYFLWLRGLPLLVLGAAGVVLVLTYTRWITRSPLLCLLAPGMGFGPIMVLGTVIALGASIDTSALLASLVALLMVSELLLINQIPDAEADRAIGRRHLVITLGPEKAAHLVAGLLLASYGVIVAGMVSGYLAMTSLIALAPLPAAVWISLRLPRVLAMPDQLNRVLGANVAVLLSTLALLVTGLSL | failed |
| MSEVSVLLLAVILDLLIGEPPHRLHPVVWMGSAVEWMRNILGNSRISGIILTIAVAAPFTLPLFLINHLQDPLNLIISSILLSAVISIRMLVTSALEVGGSLKEDIEDARRKLSMLVSRDTTSLSDEQITSAAIETLTENITDSVTAPIFYFILLGLPGAFLYRVVNTLDAMVGYLDSENRDIGWFPARLDDILNYIPSRITGVLMVPAALLLGMNWRGSFRILLRDARRTPSPNSGFTMAAAAGALSVQLEKPGVYVLGDPCDGLDNEKLLDAVKLSSLTLILFTLAAAGVMLVIP | failed |
| MSEYLHIIIWFFLIEALSFISVPFIRSAGNRLADGGYSVSRALGIMLVTYLSWIFSYILGFSFTAVLIAFFLLCSVSIFLYRKQKFFPGRKVLVVNELVFASGFFFFLLVRTYLPEIYRHEKFMDFAFLNAVIRASSFPPQDPWFAGGLMDFYYYFGYLSVAVFGKLSAVKPSILFNLAVALTFALSLNAFFGMGYNLTRGKIRYGILTAVFGMLLGNLQGLIEFVSVYIRHEQALGGYYWSSSRVIPFTINEFPYFSFIHGDLHSHMLAIPFQLLVLAFLLNMHFRKNEDSIFENSLALLMFSMSLGFLFPFNSWDFPVYFGLAFLVIFAFYCGDYVHNRNLFAAVAKFSNSMIFISIFSFLPYLLFYLDFNPQAAGGFDFVLPELRTETDRFLILFGLFLFLVFSFLITRLDSRRKIVFFVLLAGVSALLSKAWSIPLLAVLLPVFVFSLLLFLKDIPERSASGFVYLLISAASFIALLCEVIFLDDPISGEFARMNTVFKFYMHLWIFLAISAAYSYYDLNSHYAARSGNRKTLKQFVKKGWSVILVILIICCAIFPAVSTVTRIKEMNAEPSLDGMEYMRELDRGDYNAIRWMQANIKGSPVILETSEDDSSYSYACRVSSNTGIPAVIGWARHERFWGRDHEEVKKRIGDVSLIYSTGSEEEAIELIEKYNVTYVYIGTLERQVYDVNTKKFENKAYFEPVYEGSATIYKLKKKP | failed |
| MSFKDLREFIDHLEQKGRLKRITHPVDPAYEMTEISDRTLRAGGPALLFENPIGYNVPVLTNLFGTPERVAIGMGREDVKELREVGKLLAYLKEPEPPKGFKDALEKLPVFKQVLNMPAKRLRKAPCQDIVWQGDEVDLDKIPVMSCWAEDVAPLLTWGLTVTKGPNKKRQNLGIYRQQKIAKNKIIMRWLAHRGGALDLRDWMETNPGKPFPVSVAFGADPATILGAVTPVPDTLSEYAFAGLLRGSKTEVVKSISNDLEVPASAEIVMEGYIDPNEFADEGPYGDHTGYYNEKEKHHVFTITHITMRKDPIYHSTYTGRPPDEPAVLGVALNEVFVPILQKQFPEIEDFYLPPEGCSYRMAVVTMKKQYPGHAKRVMMGVWSFLRQFMYTKFVIVCDESVNARDWNDVVKAMTEHMDPVRDTLMIDNTPIDSLDFASPVVGLGSKMGLDATIKWDAELATRPQISKQDSKVITEADLESLKQQRPEIIDIYLPPTTNNRFAVVTMKKDQAGQSQALMEYLWDFFAQYTDNKFVILCDEDVNARDWNDIIWAVTTRMDPDRDTTRVSGKAESSSKLGLDATNKFESEVTREWGTPIKKDPKLVAKVDEIWDQLGIL | failed |
| MSFLVLLLAVLIEKFSALRQRVQRDEPWLNAFARREASPRTAKRPWLTLALLILVPVLLLQLALTIIGSVAYGWLVLPIHLLVLIYSLGRVDLIAVLGPFRDACRRGDAQAAVHVAQRDMRVEADNGEQLLQGVQGYMLWQAFQSFFAVIFWYFVLGPVAALAYRLLALAAEHGKTPPLVERAGQLRHAFDWVPVRLLAASFALVGNFVAVSRVMLHELLNWNISAAQLITRVGCAASEVPPPVIGTQGVTSLDMLWELLVRAAIVWYAGFALWTLLR | failed |
| MSFNTIIDWNSCTAEQQRQLLMRPAISASESITRTVNDILDNVKARGDEALREYSAKFDKTTVTALKVSAEEIAAASERLSDELKQAMAVAVKNIETFHTAQKLPPVDVETQPGVRCQQVTRPVASVGLYIPGGSAPLFSTVLMLATPASIAGCKKVVLCSPPPIADEILYAAQLCGVQDVFNVGGAQAIAALAFGTESVPKVDKIFGPGNAFVTEAKRQVSQRLDGAAIDMPAGPSEVLVIADSGATPDFVASDLLSQAEHGPDSQVILLTPAADMARRVAEAVERQLAELPRAETARQALNASRLIVTKDLAQCVEISNQYGPEHLIIQTRNARELVDSITSAGSVFLGDWSPESAGDYASGTNHVLPTYGYTATCSSLGLADFQKRMTVQELSKEGFSALASTIETLAAAERLTAHKNAVTLRVNALKEQA | not failed |
| MSFRKVEKKPTEMGRNMTHEKSDSDSDNEGAPMTVGGYTEFVARSDSDWDEPVYSGKARSNYNLTGTAKGTGPINSFSRKHFPNY | failed |
| MSGAVPETPYHQRWLAFPDAVSSYRPLESRLAGTSRATADNRTPCTGRLGTPRVFLMATDDVSKAYSSPTFDAEALLGTVISAEDPDRVLIEPWATGVDGVILDVGSGTGRWTGHLASLGHQIEGLEPATRLVELARQTHPSVTFHHGTITDLSDSPKRWAGLLAWYSLIHMGPGELPDALVALRMAVEDGGGLLMSFFSGPSLEPMYHPVATAYRWPLPELAQALETAGFQVTSSHWDPRFPHAYLTAEASKQNLALEHHHHHH | failed |
| MSGDVQPRKRKDKRRKRDDDESSHGVHITKMGNEDLHLHVHHDHGTGGHWCAKIIFFALMAVLLGLVGLIIMENRGLEDLDTPLSESRFSKVFDGWVDEHRDEHDGHDVQEPSGEALDDHDEHDDHDDHEDEDEEPLTEELEEELEEEEEPTEEDEPAADEEYEEDEDEENNAGENITAEDAEEEEEEEDNDDEGTVEATVEATTEATTEATGEYEAEEDDEDEAAADDDAVESTEAPLSKAEEQEDDEDEDEEEQEIEESVEPERSQYAAQSAPAKDNNDDDDDDDQDKNDADDGDDDEFESLAQQFENDPEDTVPAKAVESEEQDQDQADEEEPKEEGSSWLASQIKPKEAAPAPAEKEDPFEQELRKANEEMIRENYAQALRSFNTLTTNFAHEPSAHLGRARLLELLAKKERSNQRLWEAIDAYKRYLAFGELVASNQEFQTAGESCIENLRFLGHHRQATTIHELLINRLPEDPRLRNQLSLTYLMVNNLQQVEKVAVETLKLWPNNAVAQLHYGLALRQFHADYAKALPYLKYAVESGEEGTQEAFFYLSLGETMQRLSMKSEALEVYGKGVAKGFFASLYQRSLYNEPRLRAQPFWQPKETGYERQLEKLTLNWRAIRDEGLALLGRSGFFEDEAELLRDKGVWQQYELYAQGRRVKDNCRRAPITCSLLEEFPESAGCRRGQVKFSVMQAKTHVWPHCGPTNCRLRAHLTLAAPEPEKASLRVAEQERTWREGELFIFDDSFEHEVWHNGSQSRLVLILDMWHPQLSAAQRRSLSPI | failed |
| MSGEDEQQEQTIAEDLVVTKYKMGGDIANRVLRSLVEASSSGVSVLSLCEKGDAMIMEETGKIFKKEKEMKKGIAFPTSISVNNCVCHFSPLKSDQDYILKEGDLVKIDLGVHVDGFIANVAHTFVVDVAQGTQVTGRKADVIKAAHLCAEAALRLVKPGNQNTQVTEAWNKVAHSFNCTPIEGMLSHQLKQHVIDGEKTIIQNPTDQQKKDHEKAEFEVHEVYAVDVLVSSGEGKAKDAGQRTTIYKRDPSKQYGLKMKTSRAFFSEVERRFDAMPFTLRAFEDEKKARMGVVECAKHELLQPFNVLYEKEGEFVAQFKFTVLLMPNGPMRITSGPFEPDLYKSEMEVQDAELKALLQSSASRKTQKKKKKKASKTAENATSGETLEENEAGD | failed |
| MSGEPDGERVIAGRYRLLSPLGEGGMGTVWRARDEVLRREVAVKEVRAPAGLSQPDVGRMYARLEREAWAAARISHPNVVTVYDVATDGGRPWIVMELVRGLSLADLLDAEGPLEPRRAALIGAEVLAALRAAHAAGVLHRDVKPANVLLANDGRVVLTDFGIARVEGSEALTMTGEVVGSPEFLAPERALGRTPGAASDLWSLGVLLYATVEGVSPFRQGTPLSTLRAIVDEAVPPPRRAGALGPVVEGLLRKDPAERLPAEEAERALRLVGAGGAPPGRGPRTGAPPSGAFAPTVVAAHPGPPTAPTPPMPVPAAGDTSAAGAPGAPGGRDRRARAVLLVGLAVLVLALAGLTYSLLDRSDGGGGTEGSGGSPGPGATSAATSGGAGEPSPPASSGTDGGQSGPAAQSVEVTVVGSRTHYSGACPPPHDRAPAFTATFTVGRLPAEVGYRWVTADGSVSDPGWRTLSFPSGGERSRQDGVVVTTHDDTGAFESAVRVEVRSPVRATSDAVAFSVTCGTGTETETGTGTPSGGASHSSSPSAPSSSPSA | failed |
| MSGITMAMRGPRLEFAVGAFLLLTLASLLVLAVASTNQRWGFGSSQYTLTARFSQIGQLRAQAPVKIGGVTIGKVSDISLDPTKFDSIVTLSLDTRYKDLPADTSAGIFTSGLLGESYIGLQPGGDPDTLKPGDEIGFTQPAVDLLQLVGKYMFSGGGSGSNANVPAATNGQAPAPARTAPPPTEPHQ | failed |
| MSGLLPLLDFAGYVALLLWGVHMVQTGVQRAFGAALSIALGRALGTRLRAFASGLGITAALQSSTATGLMITGFAAGGVVALVPALAAMLGANVGTTLIVQLLSFDLTSLAPILILAGVWMFRRAAPGRTRDLGRVFIGLGLLLLSLHQLVQLFQPFETAPLLGVLLDALASQPVAAVLLAAALTWAAHSSVAVVVLVMSLASHGMVNPALAFALVLGANLGTAINPMIEGVTGDDPAARRLPLGNLLTRVAGVLAGIILLPWLQPWLSGLAGDPAHAVANFHTLFNVVIALVFLPILTPYAALLTRWLPKRADPNDPARPQYLDEWAHDVPAVALGNAAREALRMADMLQTLLLYARAGFKRDNRHRMVQARQLDSALDKLETAITTYLATLDQENMTREDHQRLDTILAFCSNIGHAGDIAYHGLLNHIGRLRKQGLLLSADQRASLDATLGELIANQRQAAALFVTDDLRQARALAGEKARFRALEAEAAETQLQQIKSGKVDAAEVGALYLDILRDLKGINSHVVGASAYPLLARHGELLPSRLRDAGN | failed |
| MSGMAKYMEIYIDIRDKINQNKYEINEKLPDGDSMARTYDCSKLTVKKALDMLVQEGMIIRRRGAGTFVKSHSTNGGEFALGPMSGLVNTFGKDNIKSKVILFSIEKPSKEVAEKLEMQDDYIYRIIRMREVGHKAYSIEHTYMPLAIIPGLEPHHLEDSIYNYIRDDLKLKMQSAHVWVRGDKSNQEDSKLLDLEEPTFMMEIEKLAHLEDGRVFEYSITRHTYESFVFETVFVQN | failed |
| MSGNSDEATAPGADWDALAASFDDEPDHGLRDAEVRRAWAARLASWLPAPPGDVLDLGCGTGSLSLLAAEQGHRVTGVDLSPAMVELARTKLAGRDAVFLTGDAAAPPVGEQRFDAVLVRHVLWTLPDPGRALRHWRQLLRPGGRLVLVEGVWGSVSPVGIPADRVTALLGPLTGQARVERLSDDPSLWGREVADERYAVVATYG | failed |
| MSGNVGAGRHADELAIRTVQYRWLEATRKFDRQVLSSLMTDDVVFLTPGRLPFGKEEFLAACEQNDQRVIIEASATFEEIVIVEPMAYTRTHLHIKVTPRSGGAVRELAGHAMSIFRRSMFGEWQLARDANLVVPI | not failed |
